Results taken from paper PMC3859847 (Biochemistry, 2013).
One block for each molecule: values may come before it.

Assays:
[1] = molecular target: Glucokinase (Homo sapiens) (UniProt P35557); details: cited from earlier work
[2] = molecular target: T1, rat liver glucokinase regulatory protein (rat, UniProt Q07071 1-627); assay: crystal structure
T1 sequence: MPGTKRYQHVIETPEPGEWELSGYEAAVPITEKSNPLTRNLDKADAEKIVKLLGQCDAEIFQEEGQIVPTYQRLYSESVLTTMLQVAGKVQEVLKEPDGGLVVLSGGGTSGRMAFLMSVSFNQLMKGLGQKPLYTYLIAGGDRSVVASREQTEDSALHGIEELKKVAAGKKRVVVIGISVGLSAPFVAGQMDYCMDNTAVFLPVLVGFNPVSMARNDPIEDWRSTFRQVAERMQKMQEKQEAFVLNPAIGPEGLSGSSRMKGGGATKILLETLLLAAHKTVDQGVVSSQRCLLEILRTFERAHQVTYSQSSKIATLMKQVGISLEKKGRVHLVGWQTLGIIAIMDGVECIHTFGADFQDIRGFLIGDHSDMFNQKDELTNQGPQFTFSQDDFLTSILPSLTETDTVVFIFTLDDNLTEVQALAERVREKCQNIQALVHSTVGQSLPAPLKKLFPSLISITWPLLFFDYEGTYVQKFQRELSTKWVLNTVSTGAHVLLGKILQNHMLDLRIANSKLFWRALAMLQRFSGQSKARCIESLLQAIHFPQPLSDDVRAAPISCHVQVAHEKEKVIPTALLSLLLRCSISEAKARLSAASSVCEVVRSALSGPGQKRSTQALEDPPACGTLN

Molecule: GKRP (from UniProt Q07071)
Kd [1]: 1 µM

binding result [2]: binds
B1: human pancreatic glucokinase (enzyme)
chain: DDRARMEAAKKEKVEQILAEFQLQEEDLKKVMRRMQKEMDRGLRLETHEEASVKMLPTYVRSTPEGSEVGDFLSLDLGGTNFRVMLVKVGEGEEGQWSVKTKHQMYSIPEDAMTGTAEMLFDYISECISDFLDKHQMKHKKLPLGFTFSFPVRHEDIDKGILLNWTKGFKASGAEGNNVVGLLRDAIKRRGDFEMDVVAMVNDTVATMISCYYEDHQCEVGMIVGTGCNACYMEEMQNVELVEGDEGRMCVNTEWGAFGDSGELDEFLLEYDRLVDESSANPGQQLYEKLIGGKYMGELVRLVLLRLVDENLLFHGEASEQLRTRGAFETRFVSQVESDTGDRKQIYNILSTLGLRPSTTDCDIVRRACESVSTRAAHMCSAGLAGVINRMRESRSEDVMRITVGVDGSVYKLHPSFKERFHASVRRLTPSCEITFIESEEGSGRGAALVSAVACKKACMLGQ
